In paper PMC3531502 (PLoS Biology, 2012):

T1: HET-s (full-length) (Podospora anserina, UniProt Q03689 1-289)
T1 construct: also called unlabeled monomeric full-length HET-s; HET-s prion
T1 sequence (looked up): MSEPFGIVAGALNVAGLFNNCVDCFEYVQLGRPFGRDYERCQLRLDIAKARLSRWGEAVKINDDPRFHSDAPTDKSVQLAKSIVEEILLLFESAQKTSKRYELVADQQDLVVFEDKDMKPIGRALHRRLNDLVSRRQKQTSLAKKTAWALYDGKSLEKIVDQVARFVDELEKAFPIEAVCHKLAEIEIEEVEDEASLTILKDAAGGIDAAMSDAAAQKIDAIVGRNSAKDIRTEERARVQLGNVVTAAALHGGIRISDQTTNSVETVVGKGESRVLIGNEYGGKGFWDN

B1: HET-s(218-289), prion-forming domain of HET-s (domain or fragment, Podospora anserina, UniProt Q03689 218-289, looked up)
chain: KIDAIVGRNSAKDIRTEERARVQLGNVVTAAALHGGIRISDQTTNSVETVVGKGESRVLIGNEYGGKGFWDN
notes: also called HET-s PFD; HET-s(218-289) amyloid seeds
B2: HET-S (full-length, residues 1-289) (natural protein, Podospora anserina, UniProt B2ACC7 1-289, looked up)
chain: MSEPFEIVAGALGVAGLFNNCVACFEYVQLGRHFGRDYERCQLRLDIAKVRLSRWGEAVQINDDPRFHSSAPIDKSVQLAKSIVEEILLLFESAQKTSKRYELVADQQDLVVFEDKDMKPIGRALHRRLKDLVSRRQKQTSLAKKTAWALYDGKSLEKIVDQVAGFVDELEKAFPIEAVCHKLAENEIEEVEDEASLTILKDAAGGIDAAMSDAAAQKIDAIVGRNSAKDIRTEKRARVQLGNVVTAAALHGEIRISDQTTNSVETVVGKGESKVLIGNEYGGKGFWDN
notes: also called HET-S protein; recombinant HET-S

What was measured:
[1] = biological target: B2; experiment: solid-state NMR (PAIN 13C-15N pol); settings: both partners purified
[2] = biological target: the molecule itself; experiment: solid-state NMR (PAIN 13C-15N pol)
[3] = biological target: the molecule itself; experiment: solid-state NMR (NCA 2D and 3D co)
HET-s (full-length) = biological target: T1, HET-s (full-length); experiment: solid-state NMR (NCA 2D and 3D co); settings: both partners purified

Binder | binding result [1] | binding result [2] | binding result [3] | binding result (HET-s (full-length))
B1 | binds | binds | – | –
B2 | – | – | binds | binds
